Laboratory results from patent US20180280532A1.

Target: human Trop-2 (human) (UniProt P09758)
Experiment: cell binding assay, cell line not named

human Trop-2 (human), sequence (P09758 27-323): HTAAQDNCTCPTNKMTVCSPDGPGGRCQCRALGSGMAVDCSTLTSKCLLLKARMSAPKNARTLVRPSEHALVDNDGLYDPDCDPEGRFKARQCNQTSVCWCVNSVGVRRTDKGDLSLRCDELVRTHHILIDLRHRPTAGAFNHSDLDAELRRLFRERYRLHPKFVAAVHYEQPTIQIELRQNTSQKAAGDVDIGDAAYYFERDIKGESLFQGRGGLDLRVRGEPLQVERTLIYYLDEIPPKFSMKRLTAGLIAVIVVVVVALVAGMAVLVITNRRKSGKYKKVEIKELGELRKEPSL

Kd: 1.2 nM
Substance: hRS7-CL2A-SN-38 (antibody)
